experiment: yeast display, Sf9 membrane polyspecificity reagent, FACS + sequencing; frameworks hold sequencing errors
Outline: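 Galactose induction of a Saccharomyces cerevisiae BJ5465 synthetic nanobody display library ran 36–48 hours. The cells were then stained for 1 hour at 4 °C with 10% biotinylated, detergent-solubilized Sf9 membrane reagent, pulled down on streptavidin microbeads and FACS-sorted into low and high (top ~1%) gates on expression and reagent-binding fluorescence. Labels for polyreactivity follow the gate of origin.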

Sequence	polyreactivity (PSR sort gate)
QVHLVESGGGLVQAGCSLRLSCAASGSIFSYYAMGWYRQAPGKERELVAAISVSGGNYADSVKGRFTISRDNAKNTVYLQMNSLKPEDTAVYYCAALNVYGSADVTTLEMDYWGQGTQVTVSS	low polyreactivity
QVHLVESGGGLVQAGGILRLRSAASGSTVYGYAMGWYRQAPGKERELVAAITRSGGSTYYADSVKGRFTISRDNATNKVYLQMNSQKPEDTEFYYCNKYGYKGGDGYDYWGQRTQVTVSS	high polyreactivity
QVHLVESGGGLVQAGGILRLSCAASGLTFRYYTMGWYRQEPGKERELVASITIRGGSTYYADSVKGRFTISRDNAKNTVYLQMNSLKPEDTAVYYCNTRYGFSFGYWGQGTQVTVSS	high polyreactivity
QVHLVESGGGLVQAGGILRLSCAASMVWYRQAPGKERELVAAINTRTGTTYYADSVKGRFTISRDNAKNTVYLQMNSLKPEDTAVYYCAARTYRTRYYYWGQGTQVTVSS	high polyreactivity
QVHLVESGGGLVQAGGRLRLSCAASGSIFDRYAMGWYRQAPGKEREFVARIRSSTGGTDYADSVKGRFTISRDNAKNTVYLQMNILKPEDTAVYYCAASSSHYYYWIQGSYWGRGVYWGQGSQVTVSS	high polyreactivity
QVHLVESGGGLVQAGGRLRLSCAASGSIFRLYAMGWYRQAPGKERELVARITTGGSTNYADSVKGRFTISLDNAKNTVYFQMNSLKPEDTAVYYCNGGVLVTAQMGWQKYSYWGQGSQVTVSS	high polyreactivity
QVHLVESGGGLVQAGGSHRLSCASSGFIFYFYTMGWYRQAPGKERELVAGITWLDGSTYYADSVKGRFTISRDNAKNTVYLQMNSLKPEDTAVYYCAVDYDLVVSPYYYWGQGTQVTVSS	low polyreactivity
QVHLVESGGGLVQAGGSIRLSCAASGSTFLVYAMGWYRPAPGKGRELVAAISRSGSSTYYADSVKGRFTISRDNAMNTVYLQMIRLKPEDTAVYYCNAYSQYWLGNNYWGQGTQVTVSS	high polyreactivity
QVHLVESGGGLVQAGGSLRISCAASGFTFRKYSMGWYRQAPGKERELVAGITSGGSTNNADSVKGRFTISRDNAKNTVYLQMNSLKPEDTAVYYCNAARYYAYIGDYWGQCTQVTVSS	high polyreactivity
QVHLVESGGGLVQAGGSLRISCAASGRIFWWYAMGWYRQAPGKERELVAAISTGSRTYYADSVKGRFTISRDNAKNTVFLQMNRLKPEDTAVYYCVADGLYSVSRSSIFEYWGHGTQVTVSS	low polyreactivity
QVHLVESGGGLVQAGGSLRISCAASGRTFQVYAMGRYRQAPGKERELVAAISLTGGGTYYADSVKGRFTISRDYANNTVYLQMNSLKPEDTAVYYCAVRRRTHLGFLYEYWGQGTQVTVSS	high polyreactivity
QVHLVESGGGLVQAGGSLRLICAASGSIFSAYALGWYRQAPGKERELVAAITWRGGSTYYADSVKGRFTISRDNAKNTVYLQMNSLKPEDTAVYYCAKYYYYLRSARKYDYWGQGTQVTVSS	high polyreactivity
QVHLVESGGGLVQAGGSLRLICAASGSTFLYYAKGWYRQAPGNEMELVAANSQSSASTYYADSVKGRFTISRDNAKTTIYFQIISLKPEDTAVYYCAADYWSVPYIYEYWRQGTQVTVSS	high polyreactivity
QVHLVESGGGLVQAGGSLRLICAASGYIFQRNAMGWYRQAPGKEREFVAAITRSGGTTYYADSVKGRFTISRDNAKNTVYLQMNSLKPEDTAGYYCNAPRSDRSVYHYHYWGQGTQVTVSS	low polyreactivity
QVHLVESGGGLVQAGGSLRLRSAASGRTFGWNVMGWYRQAPGKERELVAAISGSGGSTYYADSVKGRFTISRDNAKNTVYLQMNSLKPEDTAVYYCDALYGPGREYDYWGQGTQVTVSS	low polyreactivity
QVHLVESGGGLVQAGGSLRLSCAASASTYGSNSMGWYRQAPGKERELVAAITLPGASTYYADSVKGRFTISRDNAKNTVSLEMNSLKGEDTSVYSCAAQIHPRRDYSAFDYWGPGTQVTVSS	low polyreactivity

Sequence	polyreactivity (PSR sort gate)
QVHLVESGGGLVQAGGSLRLSCAASGFIFDKYAMGWYRQAPGKERELVAAITDTGGNTYYADSVKGRFTISRDNAKNTVYLQMNSLKPEDTAVYYCNADYNDYQTYSATTYEYWGQGTQVTVSS	low polyreactivity
QVHLVESGGGLVQAGGSLRLSCAASGFIFGSNAMGWSRQAPGKERELVAAITYSGASTYYADSVKGRFTISRDNAKNTVYLQMNSLKPEDTAVYYCNAVYSSVVDGSEGFDYWGQGTQVTVSS	low polyreactivity
QVHLVESGGGLVQAGGSLRLSCAASGFIFSFYGMGWSRHAPAKESELVAAISSGGTTYYADSVKGRFTISRDNAKNSVYLQMNSLKPEDTAVYYCAGRVARRTTSVFSYFSRYNYWGQGTQVSVSS	high polyreactivity
QVHLVESGGGLVQAGGSLRLSCAASGFIFSWYDMGWYRQAPGKERELVAAINWSGGSTYYADSVKGRFTISRDNAKNTVYLQIISLKPEDTAVYYCAAVRQSQFEYWGQGTQVTVSS	high polyreactivity
QVHLVESGGGLVQAGGSLRLSCAASGFTFGPYAMGWYRQAPGKERELVAGITWSGASTYYADSVKGRFTISRDNAKNTVYLQMNSLKPEDTAVYYCARYYRLGSRYDYWGQGTQVTLSS	low polyreactivity
QVHLVESGGGLVQAGGSLRLSCAASGFTFGVYAMGWYRQAPGKEREFVAAISTTVGSTYYADSVKGRFTISRDNAKNTVYLQLNSLKPEDTAVYYCAAEYTGYINYYIYEYWGQGTQVTVSS	low polyreactivity
QVHLVESGGGLVQAGGSLRLSCAASGFTFGWNAMGWYRQAPGKERELVASINSGGSTYNADSVKGRFTISRDNAKNTVYLEMNFLKPEDTAVYYCATAPYVTSRRYGPYEYWGQGSQVTVSS	low polyreactivity
QVHLVESGGGLVQAGGSLRLSCAASGFTFNRYAMGWYRQAPGKERELVATISSGGNTNYADSVKGRFTISRDNAKKTVYLQMNSLKPEDTAVYYCNADRWFHYYSYNYWGQGTQVTVSS	high polyreactivity
QVHLVESGGGLVQAGGSLRLSCAASGFTILTYGMGWYRQAPGKERELVAAIRWSGGRTYYADSVKGRFTISRDNAKNTVYLQMNSLKPEDTAVYYCAARYKFSTIRGVDYWGQGTQVTVSS	high polyreactivity
QVHLVESGGGLVQAGGSLRLSCAASGFTLYGNVMGWYRPAPGKERELVAAISWSTDSTYYADSLKGRFTISRDNAKNTVYLQMNSLKPEDTAIYYCAADYSHLPIAWYYYWGQGTQVTVSS	low polyreactivity
QVHLVESGGGLVQAGGSLRLSCAASGGIFDYYAMGWYRQAPGKERELVATISRGGSTYYADSVKGRFTISRDNAKNTVYLQMNSLKPEDTAVYYCAARQTRYWYRAWFVEHDYWGQGTKVTVSS	high polyreactivity
QVHLVESGGGLVQAGGSLRLSCAASGGIFYTYAMGWYRQAPGKEREMVAAISWRGGSTYYADSVKGRFTISRDNAKNTVYLQMNSLNPEDSAVYYCNKVTDYYYQIYWSYPYFTPDYFWGQGTQVTVSS	high polyreactivity
QVHLVESGGGLVQAGGSLRLSCAASGGTFDKNAMGWYSQAPGKESEFVAAITYGGGSTYYADSVKGRFTISRDNAKNTVYLQMTSLKPEDSAVYYCAVAIITYPYATGSSYDYWGQGTQVTVSS	low polyreactivity
QVHLVESGGGLVQAGGSLRLSCAASGGTFLVNAMGWYRQAPGKERELVAAINWSGGGTTYADSVKGRFTISRDNAKNTVYLQMNSLKPEDTAVYYCATGSYTTYGYGYWGQGTQVTVSS	high polyreactivity
QVHLVESGGGLVQAGGSLRLSCAASGGTFRTYAMGWYRQAPGTERELVAAITWRGGSTYYADSVKGRFTISRDNAKNTVYLQMNSLKPEDTAVYYCAARGAYQWSFYKDDYWGQGTQVTVSS	high polyreactivity
